Measurements: patent publication US11965039B2, “Compstatin analogues and their medical uses” (priority 2018, dated 2024)
Starred links: 1 amine or outer side, 2 acyl side, 3 side chain; linkers in the order of their positions; H or OH if unused. Positions of bridges follow the written chain, without caps; N, C: chain ends. Non-standard residues stand in square brackets, D forms with d. Groups on a side chain read outwards from the residue. *: point of attachment. X1 = K(γGlu-G-γGlu-17-carboxy-heptadecanoyl), O=C(O)CCCCCCCCCCCCCCCCC(=O)N[C@@H](CCC(=O)NCC(=O)N[C@@H](CCC(=O)NCCCC[C@H](N[*:1])C(=O)[*:2])C(=O)O)C(=O)O; Trp(1-Me) = Cn1cc(C[C@H](N)C(=O)O)c2ccccc21; C18 diacid = O=C(O)CCCCCCCCCCCCCCCCC(=O)*; C16 diacid = O=C(O)CCCCCCCCCCCCCCC(=O)*; γGlu = O=C(O)[C@H](CCC(=O)[*:2])N[*:1]; AEEA = NCCOCCOCC(=O)O; Sar = CNCC(=O)O

B1: Compound 9 (peptide)
peptide: Ac-YCIWQDWGEHRCT-NH2
modifications: disulfide 2-12
SMILES: CC[C@H](C)[C@@H]1NC(=O)[C@@H](NC(=O)[C@H](Cc2ccc(O)cc2)NC(C)=O)CSSC[C@@H](C(=O)N[C@H](C(N)=O)[C@@H](C)O)NC(=O)[C@H](CCCNC(=N)N)NC(=O)[C@H](Cc2c[nH]cn2)NC(=O)[C@H](CCC(=O)O)NC(=O)CNC(=O)[C@H](Cc2c[nH]c3ccccc23)NC(=O)[C@H](CC(=O)O)NC(=O)[C@H](CCC(N)=O)NC(=O)[C@H](Cc2c[nH]c3ccccc23)NC1=O
B2: Compound 129 (peptide)
peptide: Ac-SEFCI[Trp(1-Me)]QDWGEHRC[Sar]EGEGGGK([γGlu-Gly-γGlu-C18 diacid])-NH2
modifications: disulfide 4-14
SMILES: CC[C@H](C)[C@@H]1NC(=O)[C@@H](NC(=O)[C@H](Cc2ccccc2)NC(=O)[C@H](CCC(=O)O)NC(=O)[C@H](CO)NC(C)=O)CSSC[C@@H](C(=O)N(C)CC(=O)N[C@@H](CCC(=O)O)C(=O)NCC(=O)N[C@@H](CCC(=O)O)C(=O)NCC(=O)NCC(=O)NCC(=O)N[C@@H](CCCCNC(=O)CC[C@H](NC(=O)CNC(=O)CC[C@H](NC(=O)CCCCCCCCCCCCCCCCC(=O)O)C(=O)O)C(=O)O)C(N)=O)NC(=O)[C@H](CCCNC(=N)N)NC(=O)[C@H](Cc2c[nH]cn2)NC(=O)[C@H](CCC(=O)O)NC(=O)CNC(=O)[C@H](Cc2c[nH]c3ccccc23)NC(=O)[C@H](CC(=O)O)NC(=O)[C@H](CCC(N)=O)NC(=O)[C@H](Cc2cn(C)c3ccccc23)NC1=O
B3: Compound 138 (peptide)
peptide: Ac-SEFCI[Trp(1-Me)]QDWGEHRC[Sar]EGE-{AEEA-X1-NH2}
modifications: disulfide 4-14
SMILES: CC[C@H](C)[C@@H]1NC(=O)[C@@H](NC(=O)[C@H](Cc2ccccc2)NC(=O)[C@H](CCC(=O)O)NC(=O)[C@H](CO)NC(C)=O)CSSC[C@@H](C(=O)N(C)CC(=O)N[C@@H](CCC(=O)O)C(=O)NCC(=O)N[C@@H](CCC(=O)O)C(=O)NCCOCCOCC(=O)N[C@@H](CCCCNC(=O)CC[C@H](NC(=O)CNC(=O)CC[C@H](NC(=O)CCCCCCCCCCCCCCCCC(=O)O)C(=O)O)C(=O)O)C(N)=O)NC(=O)[C@H](CCCNC(=N)N)NC(=O)[C@H](Cc2c[nH]cn2)NC(=O)[C@H](CCC(=O)O)NC(=O)CNC(=O)[C@H](Cc2c[nH]c3ccccc23)NC(=O)[C@H](CC(=O)O)NC(=O)[C@H](CCC(N)=O)NC(=O)[C@H](Cc2cn(C)c3ccccc23)NC1=O
B4: Compound 7 (peptide)
peptide: Ac-ICIWQKWGEHRCT-NH2
modifications: disulfide 2-12
SMILES: CC[C@H](C)[C@H](NC(C)=O)C(=O)N[C@H]1CSSC[C@@H](C(=O)N[C@H](C(N)=O)[C@@H](C)O)NC(=O)[C@H](CCCNC(=N)N)NC(=O)[C@H](Cc2c[nH]cn2)NC(=O)[C@H](CCC(=O)O)NC(=O)CNC(=O)[C@H](Cc2c[nH]c3ccccc23)NC(=O)[C@H](CCCCN)NC(=O)[C@H](CCC(N)=O)NC(=O)[C@H](Cc2c[nH]c3ccccc23)NC(=O)[C@H]([C@@H](C)CC)NC1=O
B5: Compound 131 (peptide)
peptide: Ac-SEFCI[Trp(1-Me)]QDWGEHRCTEGEGGGK([γGlu-Gly-γGlu-C16 diacid])-NH2
modifications: disulfide 4-14
SMILES: CC[C@H](C)[C@@H]1NC(=O)[C@@H](NC(=O)[C@H](Cc2ccccc2)NC(=O)[C@H](CCC(=O)O)NC(=O)[C@H](CO)NC(C)=O)CSSC[C@@H](C(=O)N[C@H](C(=O)N[C@@H](CCC(=O)O)C(=O)NCC(=O)N[C@@H](CCC(=O)O)C(=O)NCC(=O)NCC(=O)NCC(=O)N[C@@H](CCCCNC(=O)CC[C@H](NC(=O)CNC(=O)CC[C@H](NC(=O)CCCCCCCCCCCCCCC(=O)O)C(=O)O)C(=O)O)C(N)=O)[C@@H](C)O)NC(=O)[C@H](CCCNC(=N)N)NC(=O)[C@H](Cc2c[nH]cn2)NC(=O)[C@H](CCC(=O)O)NC(=O)CNC(=O)[C@H](Cc2c[nH]c3ccccc23)NC(=O)[C@H](CC(=O)O)NC(=O)[C@H](CCC(N)=O)NC(=O)[C@H](Cc2cn(C)c3ccccc23)NC1=O
B6: Compound 143 (peptide)
peptide: Ac-SEFCI[Trp(1-Me)]QDWGEHRC[Sar]EGE-{AEEA-AEEA-AEEA-X1-NH2}
modifications: disulfide 4-14
SMILES: CC[C@H](C)[C@@H]1NC(=O)[C@@H](NC(=O)[C@H](Cc2ccccc2)NC(=O)[C@H](CCC(=O)O)NC(=O)[C@H](CO)NC(C)=O)CSSC[C@@H](C(=O)N(C)CC(=O)N[C@@H](CCC(=O)O)C(=O)NCC(=O)N[C@@H](CCC(=O)O)C(=O)NCCOCCOCC(=O)NCCOCCOCC(=O)NCCOCCOCC(=O)N[C@@H](CCCCNC(=O)CC[C@H](NC(=O)CNC(=O)CC[C@H](NC(=O)CCCCCCCCCCCCCCCCC(=O)O)C(=O)O)C(=O)O)C(N)=O)NC(=O)[C@H](CCCNC(=N)N)NC(=O)[C@H](Cc2c[nH]cn2)NC(=O)[C@H](CCC(=O)O)NC(=O)CNC(=O)[C@H](Cc2c[nH]c3ccccc23)NC(=O)[C@H](CC(=O)O)NC(=O)[C@H](CCC(N)=O)NC(=O)[C@H](Cc2cn(C)c3ccccc23)NC1=O
B7: Compound 134 (peptide)
peptide: Ac-EFCI[Trp(1-Me)]QDWGEHRCEGEK([γGlu-Gly-γGlu-C18 diacid])-NH2
modifications: disulfide 3-13
SMILES: CC[C@H](C)[C@@H]1NC(=O)[C@@H](NC(=O)[C@H](Cc2ccccc2)NC(=O)[C@H](CCC(=O)O)NC(C)=O)CSSC[C@@H](C(=O)N[C@@H](CCC(=O)O)C(=O)NCC(=O)N[C@@H](CCC(=O)O)C(=O)N[C@@H](CCCCNC(=O)CC[C@H](NC(=O)CNC(=O)CC[C@H](NC(=O)CCCCCCCCCCCCCCCCC(=O)O)C(=O)O)C(=O)O)C(N)=O)NC(=O)[C@H](CCCNC(=N)N)NC(=O)[C@H](Cc2c[nH]cn2)NC(=O)[C@H](CCC(=O)O)NC(=O)CNC(=O)[C@H](Cc2c[nH]c3ccccc23)NC(=O)[C@H](CC(=O)O)NC(=O)[C@H](CCC(N)=O)NC(=O)[C@H](Cc2cn(C)c3ccccc23)NC1=O
B8: Compound 8 (peptide)
peptide: Ac-ICIWQKWGAHRCTGAES-NH2
modifications: disulfide 2-12
SMILES: CC[C@H](C)[C@H](NC(C)=O)C(=O)N[C@H]1CSSC[C@@H](C(=O)N[C@H](C(=O)NCC(=O)N[C@@H](C)C(=O)N[C@@H](CCC(=O)O)C(=O)N[C@@H](CO)C(N)=O)[C@@H](C)O)NC(=O)[C@H](CCCNC(=N)N)NC(=O)[C@H](Cc2c[nH]cn2)NC(=O)[C@H](C)NC(=O)CNC(=O)[C@H](Cc2c[nH]c3ccccc23)NC(=O)[C@H](CCCCN)NC(=O)[C@H](CCC(N)=O)NC(=O)[C@H](Cc2c[nH]c3ccccc23)NC(=O)[C@H]([C@@H](C)CC)NC1=O
B9: Compound 132 (peptide)
peptide: Ac-SEFCI[Trp(1-Me)]QDWGEHRC[Sar]EK[γGlu]GGGK([γGlu-Gly-γGlu-C18 diacid])-NH2
modifications: disulfide 4-14
SMILES: CC[C@H](C)[C@@H]1NC(=O)[C@@H](NC(=O)[C@H](Cc2ccccc2)NC(=O)[C@H](CCC(=O)O)NC(=O)[C@H](CO)NC(C)=O)CSSC[C@@H](C(=O)N(C)CC(=O)N[C@@H](CCC(=O)O)C(=O)N[C@@H](CCCCN)C(=O)N[C@@H](CCC(=O)NCC(=O)NCC(=O)NCC(=O)N[C@@H](CCCCNC(=O)CC[C@H](NC(=O)CNC(=O)CC[C@H](NC(=O)CCCCCCCCCCCCCCCCC(=O)O)C(=O)O)C(=O)O)C(N)=O)C(=O)O)NC(=O)[C@H](CCCNC(=N)N)NC(=O)[C@H](Cc2c[nH]cn2)NC(=O)[C@H](CCC(=O)O)NC(=O)CNC(=O)[C@H](Cc2c[nH]c3ccccc23)NC(=O)[C@H](CC(=O)O)NC(=O)[C@H](CCC(N)=O)NC(=O)[C@H](Cc2cn(C)c3ccccc23)NC1=O
B10: Compound 133 (peptide)
peptide: Ac-SEFCI[Trp(1-Me)]QDWGEHRCTEK[γGlu]GGGK([γGlu-Gly-γGlu-C18 diacid])-NH2
modifications: disulfide 4-14
SMILES: CC[C@H](C)[C@@H]1NC(=O)[C@@H](NC(=O)[C@H](Cc2ccccc2)NC(=O)[C@H](CCC(=O)O)NC(=O)[C@H](CO)NC(C)=O)CSSC[C@@H](C(=O)N[C@H](C(=O)N[C@@H](CCC(=O)O)C(=O)N[C@@H](CCCCN)C(=O)N[C@@H](CCC(=O)NCC(=O)NCC(=O)NCC(=O)N[C@@H](CCCCNC(=O)CC[C@H](NC(=O)CNC(=O)CC[C@H](NC(=O)CCCCCCCCCCCCCCCCC(=O)O)C(=O)O)C(=O)O)C(N)=O)C(=O)O)[C@@H](C)O)NC(=O)[C@H](CCCNC(=N)N)NC(=O)[C@H](Cc2c[nH]cn2)NC(=O)[C@H](CCC(=O)O)NC(=O)CNC(=O)[C@H](Cc2c[nH]c3ccccc23)NC(=O)[C@H](CC(=O)O)NC(=O)[C@H](CCC(N)=O)NC(=O)[C@H](Cc2cn(C)c3ccccc23)NC1=O

biological target: Human C3 (Complement tech cat #A113c) (human, UniProt P01024 23-1663); test: cell-based or functional assay
Sequence (P01024 23-1663 limits assumed): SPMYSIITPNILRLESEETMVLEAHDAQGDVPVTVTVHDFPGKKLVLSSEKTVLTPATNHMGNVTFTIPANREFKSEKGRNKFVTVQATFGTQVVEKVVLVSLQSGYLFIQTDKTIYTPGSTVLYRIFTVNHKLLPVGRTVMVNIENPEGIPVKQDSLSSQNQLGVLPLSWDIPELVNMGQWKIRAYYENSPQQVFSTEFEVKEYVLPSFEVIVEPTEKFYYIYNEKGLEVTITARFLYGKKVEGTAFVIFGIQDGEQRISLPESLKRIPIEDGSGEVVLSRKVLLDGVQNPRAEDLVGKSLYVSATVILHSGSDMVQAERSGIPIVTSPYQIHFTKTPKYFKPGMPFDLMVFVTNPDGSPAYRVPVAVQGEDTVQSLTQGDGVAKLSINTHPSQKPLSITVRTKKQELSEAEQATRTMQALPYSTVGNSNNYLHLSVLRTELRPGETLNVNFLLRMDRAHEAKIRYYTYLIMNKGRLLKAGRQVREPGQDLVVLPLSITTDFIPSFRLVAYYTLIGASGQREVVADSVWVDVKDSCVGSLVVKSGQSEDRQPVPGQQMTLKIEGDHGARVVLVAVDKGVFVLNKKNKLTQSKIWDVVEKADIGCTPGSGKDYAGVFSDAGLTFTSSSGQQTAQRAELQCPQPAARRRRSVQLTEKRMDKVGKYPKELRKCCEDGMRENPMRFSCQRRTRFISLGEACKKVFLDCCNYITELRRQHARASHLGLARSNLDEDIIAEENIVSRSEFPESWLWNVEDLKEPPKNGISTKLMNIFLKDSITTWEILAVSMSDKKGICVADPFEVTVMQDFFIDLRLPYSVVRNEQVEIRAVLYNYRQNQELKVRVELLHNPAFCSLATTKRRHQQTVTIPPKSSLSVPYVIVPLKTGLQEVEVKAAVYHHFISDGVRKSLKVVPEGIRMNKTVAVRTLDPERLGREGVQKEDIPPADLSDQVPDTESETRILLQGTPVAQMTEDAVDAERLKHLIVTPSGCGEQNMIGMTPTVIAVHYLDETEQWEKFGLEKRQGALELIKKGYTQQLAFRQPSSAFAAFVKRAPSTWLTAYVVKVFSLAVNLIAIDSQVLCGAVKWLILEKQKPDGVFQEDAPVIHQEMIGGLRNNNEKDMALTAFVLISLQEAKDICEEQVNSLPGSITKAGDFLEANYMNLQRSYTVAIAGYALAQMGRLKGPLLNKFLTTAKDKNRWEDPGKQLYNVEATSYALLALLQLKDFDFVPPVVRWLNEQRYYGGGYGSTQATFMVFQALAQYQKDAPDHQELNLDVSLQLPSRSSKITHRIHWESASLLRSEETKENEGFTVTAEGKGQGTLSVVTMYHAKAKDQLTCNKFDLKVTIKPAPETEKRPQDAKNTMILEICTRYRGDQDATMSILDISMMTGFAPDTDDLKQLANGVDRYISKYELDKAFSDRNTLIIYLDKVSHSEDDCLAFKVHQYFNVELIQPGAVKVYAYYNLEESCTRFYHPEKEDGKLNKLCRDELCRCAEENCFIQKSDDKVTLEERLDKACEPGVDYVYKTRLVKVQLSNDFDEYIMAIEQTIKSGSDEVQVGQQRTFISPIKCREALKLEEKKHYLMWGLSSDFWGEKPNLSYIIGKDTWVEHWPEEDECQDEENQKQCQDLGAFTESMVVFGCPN

Row | Binder | inhibition of hemolysis IC50 [nM]
1 | Ac-SEFCI[Trp(1-Me)]QDWGEHRCTEGE-{8‑aminooctanoyl-Glu-X1-NH2} (disulfide 4-14) [Compound 137] | < 100
2 | B1 | < 100
3 | Ac-SEFCI[Trp(1-Me)]QDWGEHRCTGAESK([γGlu-Gly-γGlu-15‑carboxy‑hexadecanoyl])-NH2 (disulfide 4-14) [Compound 135] | < 100
4 | B2 | < 100
5 | B3 | < 100
6 | B4 | < 1000
7 | B5 | < 100
8 | B6 | < 100
9 | Ac-SEFCI[Trp(1-Me)]QDWGEHRCTEGE-{8‑aminooctanoyl-X1-NH2} (disulfide 4-14) [Compound 136] | < 100
10 | B7 | < 100
11 | B8 | < 500
12 | B9 | < 100
13 | B10 | < 100
